Experimental data published in patent publication US20170183388A1 (REGENTS OF THE UNIVERSITY OF COLORADO A BODY CORPORATE, published 2017).

How the values were obtained:
BioPure recombinant Aβ42 [1] = target: T1, BioPure recombinant Aβ42 (UniProt P05067 672-713); assay: Aβ42 coupled to AminoLink resin, mouse whole brain synaptosome extract, western blot
T1 construct: domain: Aβ(1-42); Recombinant peptide from AmideBio, coupled to AminoLink resin or to SPR chips by EDC-NHS; For treating neurons the peptide came from R Peptide or AmideBio; also called Aβ(1-42); amyloid β

BioPure recombinant Aβ42 [2] = target: T1, BioPure recombinant Aβ42; assay: pull-down of whole brain synaptosome proteins on Aβ42 coupled to AminoLink resin, western blot [A]

T1 sequence (P05067 672-713 limits assumed): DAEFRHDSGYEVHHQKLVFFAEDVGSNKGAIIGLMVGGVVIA

B1: Mouse synaptophysin (endogenous, from brain synaptosomes or cultured neurons) (other, UniProt Q62277 1-314, looked up)
chain: MLLLADMDVVNQLVAGGQFRVVKEPLGFVKVLQWVFAIFAFATCGSYTGELRLSVECANKTESALNIEVEFEYPFRLHQVYFDAPSCVKGGTTKIFLVGDYSSSAEFFVTVAVFAFLYSMGALATYIFLQNKYRENNKGPMMDFLATAVFAFMWLVSSSAWAKGLSDVKMATDPENIIKEMPMCRQTGNTCKELRDPVTSGLNTSVVFGFLNLVLWVGNLWFVFKETGWAAPFMRAPPGAPEKQPAPGDAYGDAGYGQGPGGYGPQDSYGPQGGYQPDYGQPASGGGGGYGPQGDYGQQGYGQQGAPTSFSNQM
notes: Endogenous protein detected by western blot; also called SYP; Syp
BioPure recombinant Aβ42 [1]
  binding result: binds

B2: Mouse synaptoporin (endogenous, from brain synaptosomes) (other, UniProt Q8BGN8 1-265, looked up)
chain: MCMVIFAPLFAMFAFATCGGYSGGLRLSVDCVNKTESNLSIDIAFAYPFRLQQVTFEVPTCEGKEQQKLALVGDSSSSAEFFVTVAVFAFLYSLAATVVYIFFQNKYRENNRGPLIDFIVTVVFSFLWLVGSSAWAKGLSDVKVATDPKEVLLLMSACKQPSNKCMAVHSPVMSSLNTSVVFGFLNFILWAGNIWFVFKETGWHSSGQRYLSDPMEKHSSSYNQGRYNQESYGSSGGYSQQANLGPTSDEFGQQPSGPTSFNNQI
notes: SYP paralog, 62% identity as printed; also called SYNPR
BioPure recombinant Aβ42 [2]
  binding result: no binding

B3: Mouse synaptogyrin1 (endogenous, from brain synaptosomes) (other, UniProt O55100 1-234, looked up)
chain: MEGGAYGAGKAGGAFDPYTLVRQPHTILRVVSWVFSIVVFGSIVNEGYLNNPEEEEEFCIYNRNPNACSYGVTVGVLAFLTCLLYLALDVYFPQISSVKDRKKAVLSDIGVSAFWAFFWFVGFCFLANQWQVSKPKDNPLNEGTDAARAAIAFSFFSIFTWAGQAVLAFQRYQIGADSALFSQDYMDPSQDSSMPYAPYVEPSAGSDPAGMGGTYQHPANAFDAEPQGYQSQGY
notes: SYP paralog, 22% identity as printed; also called SNG1; synaptogyrinl
BioPure recombinant Aβ42 [2]
  binding result: no binding

B4: Mouse MAP2 (endogenous, from brain synaptosomes) (other, UniProt P20357 1-1828, looked up)
chain: MADERKDEGKAPHWTSASLTEAAAHPHSPEMKDQGGAGEGLSRNANGFPYREEEEGAFGEHRSQGTYSDTKENGINGELTSADRETAEEVSARIVQVVTAEAVAVLKGEQEKEAQHKDQPAALPLAAEETANLPPSPPPSPASEQTATVEEDLLTASKMEFPEQEKFPSSFAEPLDKGEMEFKMPSKPGEDFEHAALVPDTSKTPQDKKDLQGMEGEKLPPVPFAQTFGTNLEDRKQSTEPSIVMPSIGLSAEPPAPKEPKDWFIEMPTESKKDEWGLAAPISPGPLTPMREKDVLEDIPRWEGKQFDSPMPSPFHGGSFTLPLDTMKNERVSEGPRPFAPVFFQSDDKVSLQDPSALATSKESSKDEEPLKDKADKVADVSISEVTTLLGNVHSPVVEGYVGENISGEVKVTTDQEKKETSAPSVQEPTLTETEPQTKLDEKSTVSIEEAVAKKEESFKLRDDKTGVIQTSTEQSFSKEDQKGQEHTIDELKQDSFPISLEQAVTDAAMTSKTLGKVTSEPEAVSERREIQGLFEEKTADKNKLEGAGSATIAEVEMPFYEDKSGMSKYFETSALKEDMTRSTELGSDYYELSDSRGSAQESLDTISPKNQHDEKELQAKASQPSPPAQEAGYSTLAQSYTPDHPSELPEEPSSPQERMFTIDPKVYGEKRDLHSKNKDDLTLSRSLGLGGRSAIEQRSMSINLPMSCLDSIALGFNFGRGHDLSPLASDILTNTSGSMDEGDDYLPPTTPAVEKMPCFPIESKEEEDKAEQAKVTGGQTIQVETSSESPFPAKEYYKNGTVMAPDLPEMLDLAGTRSRLASVSADAEVARRKSVPSEAMLAESSTSLPPVADESPVTVKPDSQLEDMGYCVFNKYTVPLPSPVQDSENLSGESGSFYEGTDDKVRRDLATDLSLIEVKLAAAGRVKDEFTAEKEASPPTSADKSRLSREFDHDRKANDKLDTVLEKSEEHIDSKEHAKESEEMGGKVELFGLGITYDQASTKELITTKDTSPEKTEKGLSSVPEVAEVEPTTKADQGLDFAATKAEPSQLDIKVSDFGQMASGMNVDAGKAIELKFEVAQELTLSSEAPQEADSFMGVESGHIKEGGKVNETEVKEKVTKPDLVHQEAVDKEESYESSGEHESLTMESLKPDEGKKETSPETSLIQDEVALKLSVEIPCPPPVSEADLSTDEKGEVQMEFIQLPKEESTETPDIPAIPSDVTQPQPEAIVSEPAEVPSEEEEIEAGGEYDKLLFRSDTLQISDLLVSESREEFVETCPGELKGVVESVVTIEDDFITVVQTTTDEGESGSHSVRFAAPAQPEEERRPRPHDEELEIEMAAEAQAEPKDGSPDAPATPEKEEVAFSEYKTETYDDYKDETTIDDSIMDADSLWVDTQDDDRSILTEQLETIPKEERAEKDARRPSLEKHRKEKPFKTGRGRISTPERKVAKKEPSTVSRDEVRRKKAVYKKAELAKKSEVQAHSPSRKLILKPAIKYTRPTHLSCVKRKTTAASGDLAQAPGAFKQAKDKVTDGISKSPEKRSSLPRPSSILPPRRGVSGDREENSFSLNSSISSARRTTRSEPIRRAGKSGTSTPTTPGSTAITPGTPPSYSSRTPGTPGTPSYPRTPGTPKSGILVPSEKKVAIIRTPPKSPATPKQLRLINQPLPDLKNVKSKIGSTDNIKYQPKGGQVQIVTKKIDLSHVTSKCGSLKNIRHRPGGGRVKIESVKLDFKEKAQAKVGSLDNAHHVPGGGNVKIDSQKLNFREHAKARVDHGAEIITQSPSRSSVASPRRLSNVSSSGSINLLESPQLATLAEDVTAALAKQGL
notes: Loading control; also called loading control
BioPure recombinant Aβ42 [2]
  binding result: no binding
